The target in experiment [1] is T1, human calcitonin receptor (human, UniProt P30988 25-474).
T1 construct: whole, on cells; Assayed as cell membranes of BHK tk'ts 13 cells stably transfected with the human calcitonin receptor (Assay VII); also called hCTR; hCT
T1 sequence (looked up): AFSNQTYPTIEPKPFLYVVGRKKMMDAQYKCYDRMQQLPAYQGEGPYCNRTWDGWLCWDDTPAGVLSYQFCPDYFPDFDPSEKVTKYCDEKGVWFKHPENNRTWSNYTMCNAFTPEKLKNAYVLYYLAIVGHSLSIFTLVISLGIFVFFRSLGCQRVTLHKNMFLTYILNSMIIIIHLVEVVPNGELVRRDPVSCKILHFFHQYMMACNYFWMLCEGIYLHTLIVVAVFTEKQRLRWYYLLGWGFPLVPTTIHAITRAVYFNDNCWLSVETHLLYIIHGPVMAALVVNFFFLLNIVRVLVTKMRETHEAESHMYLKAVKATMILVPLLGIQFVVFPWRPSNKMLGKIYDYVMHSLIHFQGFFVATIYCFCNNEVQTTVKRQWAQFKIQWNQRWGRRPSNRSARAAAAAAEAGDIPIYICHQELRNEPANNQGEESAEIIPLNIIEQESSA
Kind of experiment: SPA competition vs 125I-calcitonin, membranes of BHK cells with human calcitonin receptor (Assay VII). How it is done: Membranes were prepared in the following way; the cells were rinsed with PBS and incubated with Versene for approximately 5 min before harvesting. The cells were flushed with PBS and the cell-suspension was centrifuged for 5 min at 1000 rpm. Cells were homogenized (Ultrathurrax) in a buffer containing 20 mM Na-HEPES and 10 mM EDTA (pH 7.4) and centrifuged at 20.000 rpm for 15 min. The resulting pellet was resuspended, homogenized and centrifuged (20.000 rpm, 15 min) in a buffer containing 20 mM Na-HEPES and 0.1 mM EDTA (pH 7.4, buffer 2). The resulting pellet was resuspended in buffer 2 and protein concentration was measured (BCA protein Assay, Pierce). The homogenate was kept cold during the whole procedure. The membranes were kept at −80° C. until use. Assay was performed in a 384 well Optiplate (PerkinElmer) in a total volume of 40 ul. Membranes were mixed with SPA beads. Final concentration of membranes 35 ng/μL final and Final concentration of SPA beads was 0.05 mg/well. Test-compounds were dissolved in DMSO and further diluted in assay buffer (50 mM Hepes, pH 7.4, 1 mM CaCl2, 5 mM MgCl₂, 0.1% OA and 0.02% Tween20). […] The final mixture was incubated for 120 min with shaking at 400 rpm at 25° C. prior to centrifugation (1500 rpm, 10 min). Samples were analyzed on TopCounter™ (Packard). The […] was calculated using (one site binding competition analysis) GraphPad Prism5 as a measure of receptor affinity.

For experiment [2], the target named is T1, human calcitonin receptor. Kind of experiment: IC50 at hCTR divided by IC50 at hAmylin-R (SPA competition assays V and VII). As to the method:
The resulting pellet was resuspended, homogenized and centrifuged (20.000 rpm, 15 min) in a buffer containing 20 mM Na-HEPES and 0.1 mM EDTA (pH 7.4, buffer 2). The resulting pellet was resuspended in buffer 2 and protein concentration was measured (BCA protein Assay, Pierce). The homogenate was kept cold during the whole procedure. The membranes were kept at −80° C. until use. The assay was performed in a 384 well Optiplate (PerkinElmer) in a total volume of 40 ul. Membranes were mixed with SPA beads. Final concentration of membranes 35 ng/μL final and SPA beads was 0.05 mg/well. Test-compounds were dissolved in DMSO and further diluted in assay buffer (50 mM Hepes, pH 7.4, 1 mM CaCl2, 5 mM MgCl₂, 0.1% OA and 0.02% Tween20). […] The final mixture was incubated with shaking at 400 rpm for 120 min at 25° C. prior to centrifugation (1500 rpm, 10 min). Samples were analyzed on TopCounter™ (Packard). The IC₅₀ was calculated using (one site binding competition analysis) GraphPad Prism5 as a measure of receptor affinity.
Membranes were prepared in the following way; the cells were rinsed with PBS and incubated with Versene for approximately 5 min before harvesting. The cells were flushed with PBS and the cell-suspension was centrifuged for 5 min at 1000 rpm. Cells were homogenized (Ultrathurrax) in a buffer containing 20 mM Na-HEPES and 10 mM EDTA (pH 7.4) and centrifuged at 20.000 rpm for 15 min. The resulting pellet was resuspended, homogenized and centrifuged (20.000 rpm, 15 min) in a buffer containing 20 mM Na-HEPES and 0.1 mM EDTA (pH 7.4, buffer 2). The resulting pellet was resuspended in buffer 2 and protein concentration was measured (BCA protein Assay, Pierce). The homogenate was kept cold during the whole procedure. The membranes were kept at −80° C. until use. Assay was performed in a 384 well Optiplate (PerkinElmer) in a total volume of 40 ul. Membranes were mixed with SPA beads.

Numbered stars: 1 amine (or outer) side, 2 acyl side, 3 side chain; on linkers, the order of the positions; unused ones are H or OH. Bridge positions count the residues as written; N and C are the ends. Side chains are listed from the residue outwards. Ends that are not written are not given here. * marks the point of attachment. C20 diacid = O=C(O)CCCCCCCCCCCCCCCCCCC(=O)*; γGlu = O=C(O)[C@H](CCC(=O)[*:2])N[*:1]; AEEA = NCCOCCOCC(=O)O

B1: N^ε1-[2-[2-[2-[[2-[2-[2-[[(4S)-4-carboxy-4-(19-carboxynonadecanoylamino)butanoyl]amino]ethoxy]ethoxy]acetyl]amino]ethoxy]ethoxy]acetyl]-[Arg17,Pro21,Pro27,Pro31 … (peptide)
peptide: K([AEEA-AEEA-γGlu-C20 diacid])CNTATCATQRLANFLRHSSPNFGAIPSSTPVGSNTY-NH2
modifications: disulfide 2-7; N-terminus assumed
SMILES: CC[C@H](C)[C@H](NC(=O)[C@H](C)NC(=O)CNC(=O)[C@H](Cc1ccccc1)NC(=O)[C@H](CC(N)=O)NC(=O)[C@@H]1CCCN1C(=O)[C@H](CO)NC(=O)[C@H](CO)NC(=O)[C@H](Cc1c[nH]cn1)NC(=O)[C@H](CCCNC(=N)N)NC(=O)[C@H](CC(C)C)NC(=O)[C@H](Cc1ccccc1)NC(=O)[C@H](CC(N)=O)NC(=O)[C@H](C)NC(=O)[C@H](CC(C)C)NC(=O)[C@H](CCCNC(=N)N)NC(=O)[C@H](CCC(N)=O)NC(=O)[C@@H](NC(=O)[C@H](C)NC(=O)[C@@H]1CSSC[C@H](NC(=O)[C@@H](N)CCCCNC(=O)COCCOCCNC(=O)COCCOCCNC(=O)CC[C@H](NC(=O)CCCCCCCCCCCCCCCCCCC(=O)O)C(=O)O)C(=O)N[C@@H](CC(N)=O)C(=O)N[C@@H]([C@@H](C)O)C(=O)N[C@@H](C)C(=O)N[C@@H]([C@@H](C)O)C(=O)N1)[C@@H](C)O)C(=O)N1CCC[C@H]1C(=O)N[C@@H](CO)C(=O)N[C@@H](CO)C(=O)N[C@H](C(=O)N1CCC[C@H]1C(=O)N[C@H](C(=O)NCC(=O)N[C@@H](CO)C(=O)N[C@@H](CC(N)=O)C(=O)N[C@H](C(=O)N[C@@H](Cc1ccc(O)cc1)C(N)=O)[C@@H](C)O)C(C)C)[C@@H](C)O
notes: also called compound 96
A word on the IC50: it is the midpoint of a concentration-inhibition curve. Regarding B1, in experiment [1], the concentration for half-maximal inhibition (IC50) amounted to 13.2 nM. Also, the “Ratio hCT/hAmylin binding” value in experiment [2] is 79.6.

B2: N^ε1-[2-[2-[2-[[(4S)-4-carboxy-4-(19-carboxynonadecanoylamino)butanoyl]amino]ethoxy]ethoxy]acetyl]-[Ala14,Arg17,Pro21,Pro27,Pro31]-h-amylin (peptide)
peptide: K([AEEA-γGlu-C20 diacid])CNTATCATQRLAAFLRHSSPNFGAIPSSTPVGSNTY-NH2
modifications: disulfide 2-7; N-terminus assumed
SMILES: CC[C@H](C)[C@H](NC(=O)[C@H](C)NC(=O)CNC(=O)[C@H](Cc1ccccc1)NC(=O)[C@H](CC(N)=O)NC(=O)[C@@H]1CCCN1C(=O)[C@H](CO)NC(=O)[C@H](CO)NC(=O)[C@H](Cc1c[nH]cn1)NC(=O)[C@H](CCCNC(=N)N)NC(=O)[C@H](CC(C)C)NC(=O)[C@H](Cc1ccccc1)NC(=O)[C@H](C)NC(=O)[C@H](C)NC(=O)[C@H](CC(C)C)NC(=O)[C@H](CCCNC(=N)N)NC(=O)[C@H](CCC(N)=O)NC(=O)[C@@H](NC(=O)[C@H](C)NC(=O)[C@@H]1CSSC[C@H](NC(=O)[C@@H](N)CCCCNC(=O)COCCOCCNC(=O)CC[C@H](NC(=O)CCCCCCCCCCCCCCCCCCC(=O)O)C(=O)O)C(=O)N[C@@H](CC(N)=O)C(=O)N[C@@H]([C@@H](C)O)C(=O)N[C@@H](C)C(=O)N[C@@H]([C@@H](C)O)C(=O)N1)[C@@H](C)O)C(=O)N1CCC[C@H]1C(=O)N[C@@H](CO)C(=O)N[C@@H](CO)C(=O)N[C@H](C(=O)N1CCC[C@H]1C(=O)N[C@H](C(=O)NCC(=O)N[C@@H](CO)C(=O)N[C@@H](CC(N)=O)C(=O)N[C@H](C(=O)N[C@@H](Cc1ccc(O)cc1)C(N)=O)[C@@H](C)O)C(C)C)[C@@H](C)O
notes: also called compound 72
As to B2, the IC50 in experiment [1] was 42.4 nM. In addition, the “Ratio hCT/hAmylin binding” value in experiment [2] is 247.

B3: N^ε1-[2-[2-[2-[[2-[2-[2-[[(4S)-4-carboxy-4-(19-carboxynonadecanoylamino)butanoyl]amino]ethoxy]ethoxy]acetyl]amino]ethoxy]ethoxy]acetyl]-[Arg17,Pro21,Pro27,Pro34 … (peptide)
peptide: K([AEEA-AEEA-γGlu-C20 diacid])CNTATCATQRLANFLRHSSPNFGAIPSSTNVGPNTY-NH2
modifications: disulfide 2-7; N-terminus assumed
SMILES: CC[C@H](C)[C@H](NC(=O)[C@H](C)NC(=O)CNC(=O)[C@H](Cc1ccccc1)NC(=O)[C@H](CC(N)=O)NC(=O)[C@@H]1CCCN1C(=O)[C@H](CO)NC(=O)[C@H](CO)NC(=O)[C@H](Cc1c[nH]cn1)NC(=O)[C@H](CCCNC(=N)N)NC(=O)[C@H](CC(C)C)NC(=O)[C@H](Cc1ccccc1)NC(=O)[C@H](CC(N)=O)NC(=O)[C@H](C)NC(=O)[C@H](CC(C)C)NC(=O)[C@H](CCCNC(=N)N)NC(=O)[C@H](CCC(N)=O)NC(=O)[C@@H](NC(=O)[C@H](C)NC(=O)[C@@H]1CSSC[C@H](NC(=O)[C@@H](N)CCCCNC(=O)COCCOCCNC(=O)COCCOCCNC(=O)CC[C@H](NC(=O)CCCCCCCCCCCCCCCCCCC(=O)O)C(=O)O)C(=O)N[C@@H](CC(N)=O)C(=O)N[C@@H]([C@@H](C)O)C(=O)N[C@@H](C)C(=O)N[C@@H]([C@@H](C)O)C(=O)N1)[C@@H](C)O)C(=O)N1CCC[C@H]1C(=O)N[C@@H](CO)C(=O)N[C@@H](CO)C(=O)N[C@H](C(=O)N[C@@H](CC(N)=O)C(=O)N[C@H](C(=O)NCC(=O)N1CCC[C@H]1C(=O)N[C@@H](CC(N)=O)C(=O)N[C@H](C(=O)N[C@@H](Cc1ccc(O)cc1)C(N)=O)[C@@H](C)O)C(C)C)[C@@H](C)O
notes: also called compound 98
As for B3, in experiment [1], the IC50 worked out at 6.74 nM. For the same molecule, the “Ratio hCT/hAmylin binding” value in experiment [2] was found to be 74.1.

B4: N^ε1-[2-[2-[2-[[(4S)-4-carboxy-4-(19-carboxynonadecanoylamino)butanoyl]amino]ethoxy]ethoxy]acetyl]-[Arg14,Arg17,Pro21,Pro27,Pro31]-h-amylin (peptide)
peptide: K([AEEA-γGlu-C20 diacid])CNTATCATQRLARFLRHSSPNFGAIPSSTPVGSNTY-NH2
modifications: disulfide 2-7; N-terminus assumed
SMILES: CC[C@H](C)[C@H](NC(=O)[C@H](C)NC(=O)CNC(=O)[C@H](Cc1ccccc1)NC(=O)[C@H](CC(N)=O)NC(=O)[C@@H]1CCCN1C(=O)[C@H](CO)NC(=O)[C@H](CO)NC(=O)[C@H](Cc1c[nH]cn1)NC(=O)[C@H](CCCNC(=N)N)NC(=O)[C@H](CC(C)C)NC(=O)[C@H](Cc1ccccc1)NC(=O)[C@H](CCCNC(=N)N)NC(=O)[C@H](C)NC(=O)[C@H](CC(C)C)NC(=O)[C@H](CCCNC(=N)N)NC(=O)[C@H](CCC(N)=O)NC(=O)[C@@H](NC(=O)[C@H](C)NC(=O)[C@@H]1CSSC[C@H](NC(=O)[C@@H](N)CCCCNC(=O)COCCOCCNC(=O)CC[C@H](NC(=O)CCCCCCCCCCCCCCCCCCC(=O)O)C(=O)O)C(=O)N[C@@H](CC(N)=O)C(=O)N[C@@H]([C@@H](C)O)C(=O)N[C@@H](C)C(=O)N[C@@H]([C@@H](C)O)C(=O)N1)[C@@H](C)O)C(=O)N1CCC[C@H]1C(=O)N[C@@H](CO)C(=O)N[C@@H](CO)C(=O)N[C@H](C(=O)N1CCC[C@H]1C(=O)N[C@H](C(=O)NCC(=O)N[C@@H](CO)C(=O)N[C@@H](CC(N)=O)C(=O)N[C@H](C(=O)N[C@@H](Cc1ccc(O)cc1)C(N)=O)[C@@H](C)O)C(C)C)[C@@H](C)O
notes: also called compound 64
Consider B4, for which, in experiment [1], the IC50 was determined as 56 nM. Moreover, in experiment [2], the “Ratio hCT/hAmylin binding” value came out at 126.

Values taken from patent US20140087995A1 (published 2014).
